Data as given in the supplement of paper PMC10899765.

Columns and labels:
Settings in all cases: 20 nM; 72 h
[1] = system: MCF10A; experiment: 5+ nucleoli phenotype percent effect (relative to siNT 0% and siKIF11 100%); higher = more cells with five or more nucleoli
Protocol: (§1)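 After 72 h, cells were fixed and stained with Hoechst and anti-fibrillarin, and nucleoli per nucleus were counted with CellProfiler. Values are plate-adjusted percent effect for the one-nucleolus and 5+ nucleoli phenotypes, normalised to siNT (0%) and to the positive controls siNOL11 or siKIF11 (100%), as the mean of biological triplicates. Percent viability is the nuclei count relative to siNT.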

[2] = system: MCF10A; experiment: one-nucleolus phenotype percent effect (relative to siNT 0% and siNOL11 100%); higher = more cells with one nucleolus (ribosome biogenesis inhibition)
Protocol: as §1

[3] = system: MCF10A; experiment: percent viability (nuclei count relative to siNT); higher = more viable cells
Protocol: as §1

| Sequence | 5+ nucleoli phenotype percent effect [1] [%] | one-nucleolus phenotype percent effect [2] [%] | percent viability [3] [%] |
| --- | --- | --- | --- |
| AAGGUUUGGAUAGAUGCAAUA [hsa-miR-4464] | -24.5 | 6.58 | 29.7 |
| AAAAGUACUUGCGGAUUU [hsa-miR-548av-5p] | 9.21 | -23.4 | 77.9 |
| CUAAGAAGUUGACUGAAG [hsa-miR-3653] | -37.5 | 49.1 | 42 |
| CUGGGGAGAUCCUCGAGGUUGG [hsa-miR-3150a-3p] | -16.4 | 23.4 | 18.9 |
| UUGAAGAGGAGGUGCUCUGUAGC [hsa-miR-4709-3p] | -33 | 29.5 | 28 |
| AAAGGUCAUUGUAAGGUUAAUGC [hsa-miR-3974] | -42 | 63.7 | 39.8 |
| AGAAGAUUGCAGAGUAAGUUCC [hsa-miR-4699-5p] | -32.9 | 31.8 | 48.2 |
| CACUGCAGGACUCAGCAG [hsa-miR-4418] | -22.7 | -4.26 | 55.1 |
| UCAGGCAGUGUGGGUAUCAGAU [hsa-miR-4692] | -11.4 | 23.2 | 23.4 |
| GAACGCCUGUUCUUGCCAGGUGG [hsa-miR-614] | -0.465 | -10.6 | 72.8 |
| AGGCAGGGGCUGGUGCUGGGCGGG [hsa-miR-4763-3p] | 5.7 | 9.32 | 52.2 |
| AGCCCGCCCCAGCCGAGGUUCU [hsa-miR-4707-3p] | -25.2 | 19.7 | 42.9 |
| UUAGGCCAUCAUCCCAUUAUGC [hsa-miR-5704] | 46.5 | -23.2 | 181 |
| UCUGAAUAGAGUCUGAAGAGU [hsa-miR-4427] | 39.9 | -23.1 | 71.5 |
| UCUGUAUUCUCCUUUGCCUGCAG [hsa-miR-4742-3p] | 3.24 | 6.5 | 24.4 |
| AUAGCAGCAUAAGCCUGUCUC [hsa-miR-4524b-5p] | -6.19 | -0.0215 | 21 |
| CUGGGAGAAGGCUGUUUACUCU [hsa-miR-30c-2-3p] | -29.4 | 45.5 | 21.9 |
| AGCAGCAUUGUACAGGGCUAUCA [hsa-miR-107] | -26.1 | 29.9 | 22.7 |
| AAAAGCUGGGUUGAGAGGGCAA [hsa-miR-320b] | -10.2 | 8.28 | 59 |
| UGGGUGGUCUGGAGAUUUGUGC [hsa-miR-1293] | -9.27 | -46.3 | 7.23 |
| GUUCUGUUAACCCAUCCCCUCA [hsa-miR-4652-3p] | -42.7 | 16 | 28.2 |
| AAAAACUGAGACUACUUUUGCA [hsa-miR-548e] | 40.3 | -28.9 | 140 |
| GCUGGUGCAAAAGUAAUGGCGG [hsa-miR-548q] | -16.7 | 46 | 30.5 |
| GAGUGGGGCUUCGACCCUAACC [hsa-miR-1296-3p] | -0.672 | 8.1 | 62.8 |
| UUCACAUUGUGCUACUGUCUGC [hsa-miR-130a-5p] | 19 | -14.6 | 124 |
| CGUCAACACUUGCUGGUUUCCU [hsa-miR-505-3p] | -7.84 | 22.4 | 33.8 |
| UGGAAGGAGGUUGCCGGACGCU [hsa-miR-4533] | -14.3 | 9.34 | 46.4 |
| GUGCUUCAUCGUAAUUAACCUUA [hsa-miR-3977] | -18.9 | 2.65 | 49 |
| CCAACCUAGGUGGUCAGAGUUG [hsa-miR-4714-3p] | 42 | -11.1 | 98.3 |
